According to patent US20060269536A1 (UNIVERSITE DE LAUSANNE, published 2006):
Where a chain is given by its changes, count along the chain named.

B1: rACTWT (recombinant wild type α1-antichymotrypsin) (other, human)
chain: HHHHHHNSPLDEENLTQENQDRGTHVDLGLASANVDFAFSLYKQLVLKAPDKNVIFSPLSISTALAFLSLGAHNTTLTEILKGLKFNLTETSEAEIHQSFQHLLRTLNQSSDELQLSMGNAMFVKEQLSLLDRFTEDAKRLYGSEAFATDFQDSAAAKKLINDYVKNGTRGKITDLIKDLDSQTMMVLVNYIFFKAKWEMPFDPQDTHQSRFYLSKKKWVMVPMMSLHHLTIPYFRDEELSCTVVELKYTGNASALFILPDQDKMEEVEAMLLPETLKRWRDSLEFREIGELYLPKFSISRDYNLNDILLQLGIEEAFTSKADLSGITGARNLAVSQVVHKAVLDVFEEGTEASAATAVKITLLSALVETRTIVRFNRPFLMIIVPTDTQNIFFMSKVTNPKQA
notes: Serpin; Expressed in E. coli TG1 from pQE-9 with an N-terminal His tag; also called ACTWT (LL↓SA); wild type rACT
B2: rACT8.20 (designed binder)
chain: MRGSHHHHHHSRHPNSPLDEENLTQENQDRGTHVDLGLASANVDFAFSLYKQLVLKAPDKNVIFSPLSISTALAFLSLGAHNTTLTEILKGLKFNLTETSEAEIHQSFQHLLRTLNQSSDELQLSMGNAMFVKEQLSLLDRFTEDAKRLYGSEAFATDFQDSAAAKKLINDYVKNGTRGKITDLIKDLDSQTMMVLVNYIFFKAKWEMPFDPQDTHQSRFYLSKKKWVMVPMMSLHHLTIPYFRDEELSCTVVELKYTGNASALFILPDQDKMEEVEAMLLPETLKRWRDSLEFREIGELYLPKFSISRDYNLNDILLQLGIEEAFTSKADLSGITGARNLAVSQVVHKAVLDVFEEGTEASAATAVKITLRSRAVETRTIVRFNRPFLMIIVPTDTQNIFFMSKVTNPKQA
B3: rACT6.2 (designed binder)
chain: B2 chain with L371R, R374I, A375D
notes: Recombinant human α1-antichymotrypsin variant, RSL P3-P'3 = TRRSID; N-terminal His tag, E. coli TG1; also called MD62; MD 62
B4: rACT6.1 (designed binder)
chain: B2 chain with T370M, L371T, R374N
notes: N-terminal His tag, E. coli TG1; also called MD61; MD 61
B5: rACT6.7 (designed binder)
chain: B2 chain with T370K, S373T, R374T, A375L
B6: rACT8.3 (designed binder)
chain: B2 chain with T370R, L371G, R374E, A375L
B7: ACT5.18 (designed binder)
chain: B2 chain with L371E, S373V, R374S, A375P
B8: rACTPCI (MD CI) (designed binder)
chain: B2 chain with L371F, R374A, A375L

Target: human glandular kallikrein hK2 (human, UniProt P20151 25-261)
Test: cell-based or functional assay

| Binder | Inhibition % (residual enzyme activity, fluorescent substrate) |
| --- | --- |
| B1 | 0% |
| B2 | 95% |
| B3 | 100% |
| B4 | 100% |
| B5 | 100% |
| B6 | 100% |
| B7 | 73% |

Target: T1, Human chymotrypsin (Chtr) (human, UniProt P17538 19-263)
T1 sequence (P17538 19-263): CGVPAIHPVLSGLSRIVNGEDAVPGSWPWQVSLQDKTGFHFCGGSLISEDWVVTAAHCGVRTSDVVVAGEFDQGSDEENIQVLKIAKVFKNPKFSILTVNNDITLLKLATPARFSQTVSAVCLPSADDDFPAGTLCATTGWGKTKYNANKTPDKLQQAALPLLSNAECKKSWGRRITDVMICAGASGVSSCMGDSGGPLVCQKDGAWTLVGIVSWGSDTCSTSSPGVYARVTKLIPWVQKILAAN
Test: cell-based or functional assay

| Binder | Inhibition % (residual enzyme activity, fluorescent substrate) |
| --- | --- |
| B1 | 100% |
| B2 | 66% |
| B3 | 0% |
| B4 | 0% |
| B5 | 0% |
| B6 | 0% |
| B7 | 0% |

Target: human plasma kallikrein (PK) (human, UniProt P03952 20-638)
Sequence (P03952 20-638 limits assumed): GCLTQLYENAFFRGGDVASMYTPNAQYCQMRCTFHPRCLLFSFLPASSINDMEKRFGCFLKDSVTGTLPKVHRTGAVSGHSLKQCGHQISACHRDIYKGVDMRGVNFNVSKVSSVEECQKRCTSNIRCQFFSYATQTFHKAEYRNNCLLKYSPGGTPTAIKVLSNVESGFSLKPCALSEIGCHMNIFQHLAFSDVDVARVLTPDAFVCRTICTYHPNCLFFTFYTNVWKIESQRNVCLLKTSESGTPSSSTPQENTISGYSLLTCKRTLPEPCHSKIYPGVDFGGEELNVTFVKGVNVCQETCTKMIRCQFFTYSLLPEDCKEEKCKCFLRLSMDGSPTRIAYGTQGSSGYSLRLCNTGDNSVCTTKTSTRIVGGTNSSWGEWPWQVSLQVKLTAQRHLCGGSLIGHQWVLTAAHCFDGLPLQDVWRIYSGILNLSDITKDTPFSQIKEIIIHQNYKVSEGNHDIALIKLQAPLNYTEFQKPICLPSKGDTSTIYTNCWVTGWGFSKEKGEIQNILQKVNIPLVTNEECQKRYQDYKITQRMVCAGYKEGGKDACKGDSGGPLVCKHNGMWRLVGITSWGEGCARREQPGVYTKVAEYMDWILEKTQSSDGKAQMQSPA
Test: cell-based or functional assay

| Binder | Inhibition % (residual enzyme activity, fluorescent substrate) |
| --- | --- |
| B1 | 0% |
| B2 | 54% |
| B3 | 100% |
| B4 | 100% |
| B5 | 36% |
| B6 | 0% |
| B7 | 0% |

Target: T2, human neutrophil elastase (HNE) (human, UniProt P08246 30-247, limits assumed)
T2 sequence (looked up): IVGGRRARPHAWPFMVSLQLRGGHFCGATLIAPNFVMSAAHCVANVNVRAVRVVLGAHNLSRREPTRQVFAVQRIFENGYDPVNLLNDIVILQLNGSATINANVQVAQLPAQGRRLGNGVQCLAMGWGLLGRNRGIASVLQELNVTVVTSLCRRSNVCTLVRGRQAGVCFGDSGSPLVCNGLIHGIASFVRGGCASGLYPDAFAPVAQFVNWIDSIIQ
Test: cell-based or functional assay

| Binder | Inhibition % (residual enzyme activity, fluorescent substrate) |
| --- | --- |
| B1 | 15% |
| B2 | 30% |
| B3 | 0% |
| B4 | 60% |
| B5 | 0% |
| B6 | 0% |
| B7 | 0% |

Target: T3, hK3 (PSA) (human, UniProt P07288 25-261)
T3 sequence (P07288 25-261 limits assumed): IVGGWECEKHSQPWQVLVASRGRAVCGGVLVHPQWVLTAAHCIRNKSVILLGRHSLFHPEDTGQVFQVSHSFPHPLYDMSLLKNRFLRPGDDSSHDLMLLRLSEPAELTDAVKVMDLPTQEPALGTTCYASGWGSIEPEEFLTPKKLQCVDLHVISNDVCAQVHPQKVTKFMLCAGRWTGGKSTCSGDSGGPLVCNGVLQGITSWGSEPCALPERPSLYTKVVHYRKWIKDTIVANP
Test: cell-based or functional assay

| Binder | Inhibition % (residual enzyme activity, CFP-TFRSA-YFP substrate, 90 min at 37°) |
| --- | --- |
| B1 | 80% |
| B3 | 0% |
| B4 | 0% |
| B5 | 0% |
| B6 | 0% |
| B7 | 0% |

Target: human kallikrein hK1 (human, UniProt P06870 25-262)
Sequence (P06870 25-262): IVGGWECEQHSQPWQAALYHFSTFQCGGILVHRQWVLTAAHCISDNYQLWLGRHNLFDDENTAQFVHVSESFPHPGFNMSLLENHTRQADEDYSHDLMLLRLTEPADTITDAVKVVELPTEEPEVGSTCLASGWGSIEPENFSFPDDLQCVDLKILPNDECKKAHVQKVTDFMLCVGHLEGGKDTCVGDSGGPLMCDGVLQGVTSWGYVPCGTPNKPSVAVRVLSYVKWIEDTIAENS
Test: cell-based or functional assay

| Binder | Inhibition % (residual enzyme activity, fluorescent substrate) |
| --- | --- |
| B1 | 0% |
| B2 | 0% |
| B3 | 0% |
| B4 | 0% |
| B5 | 0% |
| B6 | 0% |
| B7 | 0% |

Target: urokinase plasminogen activator (uPA) (UniProt P00749 21-431, limits assumed)
Test: cell-based or functional assay

| Binder | Inhibition % (residual enzyme activity, fluorescent substrate) |
| --- | --- |
| B1 | 0% |
| B2 | 0% |
| B3 | 0% |
| B4 | 0% |
| B5 | 0% |
| B6 | 0% |
| B7 | 0% |

Target: Trypsin
Test: inhibitory profile of MDCI; method as in example 1

| Binder | kon |
| --- | --- |
| B8 | 1.13e+06 M⁻¹ s⁻¹ |

Target: T3, hK3 (PSA)
Test: Western blot of hK3-ACT complex, anti-His antibody (FIG. 6B)
Protocol: For each variants of ACT, 1 μg of inhibitor was incubated with 100 ng of either hK2 or hK3 during 1 hour at 37° C. under physiological conditions.

| Binder | binding result |
| --- | --- |
| B3 | no binding |
| B4 | no binding |

Target: T1, Human chymotrypsin (Chtr)
Test: residual protease activity against [I]o/[E]o, linear regression, x intercept
Protocol: The stoichiometry of inhibition (SI) values were determined for the inhibition of rACTWT and its variants with hK2 and different other enzymes. An initial test was made with a molar excess of rACT (100 fold) over hK2, PSA, hK1, chymotrypsin (Chtr), plasma kallikrein (PK), urokinase (uPA) and human neutrophile elastase (HNE) enzymes. The reaction was carried out for 30 min at 25° C. (90 min at 37° C. for PSA) in reaction buffer (50 mM Tris pH 7.5, 150 mM NaCl, 0.05% Triton X-100, 0.01% BSA) and residual enzyme activity was measured by adding fluorescent substrates (Z-Phe-Arg-AMC for hK1, hK2 and PK, Suc-Ala-Ala-Pro-Phe-AMC for Chtr, Z-Gly-Gly-Arg-AMC for uPA, MeOSuc-Ala-Ala-Pro-Val-AMC for HNE, and CFP-TFRSA-YFP for PSA). Activity of enzyme in presence of inhibitors was compared to uninhibited reaction. For reactions where an inhibition was observed, SI was determined by incubating different concentrations of recombinant serpins. […]
In order to determine the SI values of all the recombinant variants, Applicants have incubated hK2 (5 nM) with different concentrations (6.25-500 nM) of rACT_{8.20} (x), rACT_{6.2} (□), rACT_{8.3} (Δ), rACT_{6.7} (⋄), rACT_{6.1} ( ), rACT_{5.18} (∘), rACTWT (+), at 25° C. for 30 min in reaction buffer. […] The SI was determined using linear regression analysis to extrapolate the I/E ratio (i.e. the x intercept).

| Binder | SI (stoichiometry of inhibition) |
| --- | --- |
| B1 | 2 |
